Measurements from patent publication US20160194681.
Changes are numbered by the printed parent chain.

B1: human auto-activating MMP-9 (protein)
chain: APRQRQSTLVLFPGDLRTNLTDRQLAEEYLYRYGYTRVAEMRGESKSLGPALLLLQKQLSLPETGELDSATLKAMRTPRCLVPDLGRFQTFEGDLKWHHHNITYWIQNYSEDLPRAVIDDAFARAFALWSAVTPLTFTRVYSRDADIVIQFGVAEHGDGYPFDGKDGLLAHAFPPGPGIQGDAHFDDDELWSLGKGVVVPTRFGNADGAACHFPFIFEGRSYSACTTDGRSDGLPWCSTTANYDTDDRFGFCPSERLYTQDGNADGKPCQFPFIFQGQSYSACTTDGRSDGYRWCATTANYDRDKLFGFCPTRADSTVMGGNSAGELCVFPFTFLGKEYSTCTSEGRGDGRLWCATTSNFDSDKKWGFCPDQGYSLFLVAAHEFGHALGLDHSSVPEALMYPMYRFTEGPPLHKDDVNGIRHLYGPRPEPEPRPPTTTTPQPTAPPTVCPTGPPTVHPSERPTAGPTGPPSAGPTGPPTAGPSTATTVPLSPVDDACNVNIFDAIAEIGNQLYLFKDGKYWRFSEGRGSRPQGPFLIADKWPALPRKLDSVFEERLSKKLFFFSGRQVWVYTGASVLGPRRLDKLGLGADVAQVTGALRSGRGKMLLFSGRRLWRFDVKAQMVDPRSASEVDRMFPGVPLDTHDVFQYREKAYFCQDRFYWRVSSRSELNQVDQVGYVTYDILQCPED
B2: inactive human MMP-9 (protein)
chain: B1 chain with L81G

Target: genetically encoded FRET-based MMP-9 activity biosensor with α-helical linker, P09619
Sequence (P09619 whole entry, looked up): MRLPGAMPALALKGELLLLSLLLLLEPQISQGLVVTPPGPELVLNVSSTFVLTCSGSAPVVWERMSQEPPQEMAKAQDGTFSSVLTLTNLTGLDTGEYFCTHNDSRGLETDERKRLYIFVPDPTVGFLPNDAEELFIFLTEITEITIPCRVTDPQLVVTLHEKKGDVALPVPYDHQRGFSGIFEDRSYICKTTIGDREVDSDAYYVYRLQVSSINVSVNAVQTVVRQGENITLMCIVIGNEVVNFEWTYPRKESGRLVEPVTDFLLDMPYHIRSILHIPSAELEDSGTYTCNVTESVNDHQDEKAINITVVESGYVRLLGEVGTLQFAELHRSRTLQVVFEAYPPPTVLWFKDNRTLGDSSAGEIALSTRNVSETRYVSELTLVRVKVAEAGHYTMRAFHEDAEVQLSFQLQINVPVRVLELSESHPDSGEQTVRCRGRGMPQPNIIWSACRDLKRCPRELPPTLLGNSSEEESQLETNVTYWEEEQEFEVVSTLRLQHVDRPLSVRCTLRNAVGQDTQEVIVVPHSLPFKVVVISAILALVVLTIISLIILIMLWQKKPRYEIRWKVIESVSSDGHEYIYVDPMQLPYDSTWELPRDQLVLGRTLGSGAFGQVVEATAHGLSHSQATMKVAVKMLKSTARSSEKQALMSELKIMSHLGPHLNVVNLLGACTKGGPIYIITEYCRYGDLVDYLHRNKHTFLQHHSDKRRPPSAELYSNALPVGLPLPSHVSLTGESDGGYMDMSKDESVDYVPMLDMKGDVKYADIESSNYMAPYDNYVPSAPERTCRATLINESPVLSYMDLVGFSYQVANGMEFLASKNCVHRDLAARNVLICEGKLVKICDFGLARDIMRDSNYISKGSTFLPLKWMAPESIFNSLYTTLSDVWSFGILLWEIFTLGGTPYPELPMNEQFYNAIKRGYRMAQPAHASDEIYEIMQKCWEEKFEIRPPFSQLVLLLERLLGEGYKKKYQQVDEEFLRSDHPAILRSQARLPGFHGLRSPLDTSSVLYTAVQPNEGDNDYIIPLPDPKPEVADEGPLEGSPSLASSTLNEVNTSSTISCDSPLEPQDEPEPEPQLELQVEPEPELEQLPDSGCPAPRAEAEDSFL

Protein	in vitro cleavage of the biosensor in HEK293 lysate, Western blot with anti-GFP antibody
B1	The MMP-9 activity biosensor is cleaved in vitro by a human auto-activating MMP-9
B2	Inactive human MMP-9 does not cleave the biosensor
